# Experimental data from patent publication US9289490B2, “Combinations and uses thereof” (MORPHOSYS AG, priority 2010, dated 2016).
# Where “and” joins values, the source holds several entries; their conditions need not be identical. Equal entries are not always repeated. Where two headings read alike, the source gives them in different places. Marks after values point to notes of the source that are not given here.
# B1: MOR202: anti-CD38 antibody whose amino acid sequence is provided in FIG. 11; IgG1 (antibody, V domains shown)
# VH: QVQLVESGGGLVQPGGSLRLSCAASGFTFSSYYMNWVRQAPGKGLEWVSGISGDPSNTYYADSVKGRFTISRDNSKNTLYLQMNSLRAEDTAVYYCARDLPLVYTGFAYWGQGTLVTVSS
# VL: DIELTQPPSVSVAPGQTARISCSGDNLRHYYVYWYQQKPGQAPVLVIYGDSKRPSGIPERFSGSNSGNTATLTISGTQAEDEADYYCQTYTGGASLVFGGGTKLTVLGQ
# B2: MOR03207: binds lysosyme, and is used as isotype control, as it is IgG1 (SEQ ID NO: 8, 9) (antibody, V domains shown)
# VH: QVQLQQSGPGLVKPSQTLSLTCAISGDSVSSNSAAWSWIRQSPGRGLEWLGRIYYRSKWYNDYAVSVKSRITINPDTSKNQFSLQLNSVTPEDTAVYYCARLDHRYHEDTVYPGMDVWGQGTLVTVSS
# VL: DIELTQPPSVSVAPGQTARISCSGDNLPAYTVTWYQQKPGQAPVLVIYDDSDRPSGIPERFSGSNSGNTATLTISGTQAEDEADYYCASWDPSSGVVFGGGTKLTVLGQ
# modifications: /mol_type=“protein” /note=“variable heavy chain” /organism=“synthetic construct”; /mol_type=“protein” /note=“variable light chain” /organism=“synthetic construct”
# Columns and labels:
# [1] = system: NCI-H929 human multiple myeloma cells; assay: NCI-H929 bone lysis SCID mouse MM model, MOR202 and LEN (MicroCT); type: in vivo, SCID mice; set-up: Trabecular Bone Volume (Tb · BV), individual mouse / Trabecular Bone Volume (Tb · BV), Mean: unit not given here
# Experimental: 63 SCID mice were inoculated on Day (−7) orthotopically into the right tibia with 2.5×10^6 NCI-H929 MM cells (in 5 μL) in order to induce bone lysis. Lenalidomide (Groups A and D) and Vehicle Control (Group C) treatments started on Day (−1). MOR202 treatments (Groups B and D) started on Day 0. Treatment continued for 6 weeks.
# MicroCT Scan was used to assess bone lysis and included […] analysis comprising Total Bone Volume (TBV), Trabecular Bone Volume (Tb.BV), Trabecular Pattern Factor (Tb.Pf) and Structure Model Index (SMI). Table 10 defines each of these parameters.
# [2] = system: NCI-H929 MM cells; assay: NCI-H929 bone lysis SCID mouse model, MOR202 and BOR (MicroCT); type: in vivo, SCID mice; set-up: Trabecular Bone Volume (Tb · BV), individual mouse / Trabecular Bone Volume (Tb · BV), Average: unit not given here
# Excerpt: 63 SCID mice were inoculated on Day (−7) intra-tibially with 2.5×10^6 NCI-H929 MM cells in order to induce bone lysis. Bortezomib (Groups A and AB) and Vehicle Control (Group C) treatments started on Day (−1). MOR202 treatments (Groups B and AB) started on Day 0. Treatment continued for 6 weeks.
# MicroCT Scan was used to assess bone lysis and included a 3-dimensional analysis comprising Total Bone Volume (TBV), Trabecular Bone Volume (Tb.BV), Trabecular Pattern Factor (Tb.Pf) and Structure Model Index (SMI). Table 10 above defines each of these parameters.
# [3] = system: AMO-1 cells; assay: ADCC with human PBMCs, flow cytometry (CalceinAM/PI); type: cell-based
# Experimental: For Tables 3b-c, “Theoretical Combination” represents the addition of the values of MOR202 alone and the values of LEN alone. The normalized data of Table 3b is calculated as follows. Therefore, the specific killing values of Table 3b are calculated by subtracting the values of the controls. Then the specific killing values are compared to the MOR202 group, which is set as 1.
# The constant m determines the shape of the dose-effect curve. We used Excel Fit software to carry out a linear regression calculation to estimate the parameters m and D50.
# The CI-isobol method provides a quantitative assessment of synergism between drugs. A combination index (CI) is estimated from dose-effect data of single and combined drug treatments. […] Formally, the combination index (CI) of a combined drug treatment is defined as CI=D1/Dx1+D2/Dx2
# The data is analysed in the following way: Antagonistic(AB)/C<(A/C)×(B/C) Additive(AB)/C=(A/C)×(B/C) Synergistic(AB)/C>(A/C)×(B/C) where A is the treatment with LEN alone; B is the treatment with MOR202 alone; C is response to the treatment vehicle; AB is combination of treatments A and B.
# [4] = system: RAMOS cells; assay: RAMOS non-Hodgkin tumor SCID mouse survival model, MOR202 and lenalidomide; type: in vivo, SCID mice
# Experimental: Sixty-eight female SCID mice were pre-treated with Cyclophosphamide (75 mg/kg, i.p., twice daily) for two days prior to RAMOS cell inoculation (Day −5 and −4). On the day of inoculation (Day −3), all mice were inoculated with 1×10^6 RAMOS cells each intravenously into the tail vein. Sixty-four of the mice were randomised by body weight into eight groups of eight.
# The study continued for 98 days and the measured endpoint was survival.
# [5] = system: RAMOS cells; conditions: BOR 0.6 mg/kg i.p., MOR202 1 mg/kg i.v.
# Experimental: Fifty-five female SCID mice were pre-treated with Cyclophosphamide (75 mg/kg, i.p., twice daily) for two days prior to RAMOS cell inoculation (Day −5 and −4). On the day of inoculation (Day −3), all fifty-five mice were inoculated with 1×10^6 RAMOS cells each (in 100 μL) intravenously into the tail vein. Forty-eight of the mice were randomised by body weight into six groups of eight.
# [6] = system: NCI-H929 cells; assay: ADCC with human PBMCs, flow cytometry (CalceinAM/PI); conditions: for % dead cells (raw data, Table 7a), Exp. 2 and 3 / % dead cells (raw data, Table 7a), Exp. 1: PBMCs and NCI-H929 cells treated with LEN before MOR202; for % dead cells (raw data, Table 7a), Exp. 2 and 3 / % dead cells (raw data, Table 7a), Exp. 1 / % dead cells (raw data, Table 8a), Exp. 2 and 3 / % dead cells (raw data, Table 8a), Exp. 1: MOR03207 15 μg/ml; for % dead cells (raw data, Table 8a), Exp. 2 and 3 / % dead cells (raw data, Table 8a), Exp. 1: only effector cells treated with LEN before MOR202
# Experimental: PBMC's were isolated by density gradient centrifugation of freshly isolated human blood. Isolated blood from different donors were layered on a defined volume of Biocoll (Biochrome AG; CAT No.:L6115; LOT No.:1050T) in a Falcon tube and centrifuged at 380 g. The PBMCs were isolated and supplemented with RPMI medium.
# Cell suspensions were further incubated for 4 h at 37° C. To detect dead AMO-1 cells, cell suspensions were challenged with propidium iodide (PI) and subsequently analyzed in flow cytometry. Target cells were separated via gating of CalceinAM positive cell populations, and cells killed via ADCC were quantified.
# Single and combination doses of 5 μM LEN and 15 μg/ml of MOR03207 and 0.2 or 0.07 μg/ml MOR202 were used.
# Single and combination doses of 5 μM LEN and 15 μg/ml of MOR03207 and 0.2* or 0.07 μg/m MOR202 were used.
# [7] = LEN 50 mg/kg p.o. once daily, MOR202 3 mg/kg i.p. 3 times weekly, 6 weeks, lower = less bone lysis, listed as MOR03087
# [8] = group mean of 10 mice, LEN 50 mg/kg p.o., MOR202 3 mg/kg i.p., 6 weeks
# [9] = Bortezomib 0.6 mg/kg i.p. twice per week, MOR202 3 mg/kg i.p. three times per week, 6 weeks, lower = less bone lysis
# [10] = group average of 10 mice, Bortezomib 0.6 mg/kg i.p., MOR202 3 mg/kg i.p., 6 weeks
molecule,measurement,setting,value
B1,"Structure Model Index (SMI), individual mouse",[1]; [7],2.386 and 1.818 and 2.423 and 2.450 and 1.860 and 2.461 and 2.558 and 2.247 and 2.318 and 2.275
same,"Trabecular Pattern Factor (Tb · Pf), individual mouse",[1]; [7],27.049 mm^−1 and 15.631 mm^−1 and 27.631 mm^−1 and 27.523 mm^−1 and 17.887 mm^−1 and 21.405 mm^−1 and 26.345 mm^−1 and 20.327 mm^−1 and 25.843 mm^−1 and 22.402 mm^−1
same,"Structure Model Index (SMI), Mean",[1]; [8],2.28
same,"Total Bone Volume (TBV), Mean",[1]; [8],2.467 mm^3
same,"Trabecular Bone Volume (Tb · BV), Mean",[1]; [8],0.323
same,"Trabecular Pattern Factor (Tb · Pf), Mean",[1]; [8],23.204 mm^−1
same,"Structure Model Index (SMI), Mean","[1]; group mean of 10 mice, LEN 50 mg/kg p.o., MOR202 3 mg/kg i.p., 6 weeks, listed as MOR03087",2.280
same,Reduction of bone lysis compared to vehicle control,"[1]; non-inoculated tibia = 0%, vehicle = 100% bone lysis, MOR202 alone 12 mg/kg, LEN alone 50 mg/kg, combination 3 mg/kg MOR202 and 50 mg/kg LEN",up to 55%
same,"Structure Model Index (SMI), individual mouse",[2]; [9],2.546 and 2.079 and 2.296 and 2.429 and 1.871 and 2.193 and 2.368 (2×) and 2.436 and 2.511
same,"Trabecular Pattern Factor (Tb · Pf), individual mouse",[2]; [9],27.363 mm^−1 and 19.479 mm^−1 and 21.858 mm^−1 and 23.814 mm^−1 and 16.347 mm^−1 and 19.748 mm^−1 and 25.212 mm^−1 and 21.276 mm^−1 and 24.031 mm^−1 and 25.056 mm^−1
same,"Structure Model Index (SMI), Average",[2]; [10],2.31
same,"Total Bone Volume (TBV), Average",[2]; [10],1.988 mm^3
same,"Trabecular Bone Volume (Tb · BV), Average",[2]; [10],0.296
same,"Trabecular Pattern Factor (Tb · Pf), Average",[2]; [10],22.418 mm^−1
same,Reduction of bone lysis compared to vehicle control,"[2]; non-inoculated tibia = 0%, vehicle = 100% bone lysis, MOR202 alone 12 mg/kg, BOR alone 0.6 mg/kg, combination 3 mg/kg MOR202 and 0.6 mg/kg BOR",up to 55%
same,"Normalized specific killing, MOR202 treatment group set as 1 (Table 3b)","[3]; PBMCs and AMO-1 cells treated with LEN, LEN 10 μM, MOR202 and MOR03207 15 μg/ml, controls subtracted, Exp. 1-3",1.0
same,"Normalized specific killing, theoretical combination set as 1 (Table 3c)","[3]; PBMCs and AMO-1 cells treated with LEN, MOR202 0.42 μg/ml, LEN 5 μM, Experiment 1-3",0.9 and 0.6
same,"Normalized specific killing, theoretical combination set as 1, AVERAGE (Table 3c)","[3]; PBMCs and AMO-1 cells treated with LEN, MOR202 0.42 μg/ml, LEN 5 μM, average of 3 experiments",0.8
same,"Normalized specific killing, MOR202 treatment group set as 1 (Table 4b)","[3]; only effector cells treated with LEN, LEN 10 μM, MOR202 and MOR03207 15 μg/ml, Exp. 1-3",1.0
same,"Normalized specific killing, theoretical combination set as 1 (Table 4c)","[3]; only effector cells treated with LEN, MOR202 0.42 μg/ml, LEN 5 μM, Experiment 1-3",0.8 and 1.2 and 0.7
same,"Normalized specific killing, theoretical combination set as 1, AVERAGE (Table 4c)","[3]; only effector cells treated with LEN, MOR202 0.42 μg/ml, LEN 5 μM, average of 3 experiments",0.9
same,Number of mice alive at study termination (day 98),"[4]; LEN 100 mg/kg (Table 14) p.o., MOR202 1 mg/kg i.v.",0/8
same,Day of death (post-inoculation) Mean,"[4]; LEN 100 mg/kg (Table 14) p.o., MOR202 1 mg/kg i.v. twice weekly, study 98 days",49.6 days
same,% ILS (based on median death day),"[4]; LEN 100 mg/kg (Table 14) p.o., MOR202 1 mg/kg i.v., vs vehicle control",155%
same,Day of death (post-inoculation) Median,"[4]; LEN 100 mg/kg (Table 14; Table 13: 50 mg/kg) p.o. once daily, MOR202 1 mg/kg i.v. twice weekly, study 98 days",51 days
same,Number of mice alive at study termination (day 98),[5],0/8
same,Day of death (post-inoculation) Mean,[5]; study 98 days,43.6 days
same,Day of death (post-inoculation) Median,[5]; study 98 days,43.5 days
same,% ILS (based on median death day),[5]; vs vehicle control,112%
same,"% dead cells (raw data, Table 7a), Exp. 2 and 3","[6]; LEN 5 μM, MOR202 0.07 μg/ml",32.54 % dead cells and 43.08 % dead cells
same,"% dead cells (raw data, Table 7a), Exp. 1","[6]; LEN 5 μM, MOR202 0.2 μg/ml (*)",30.64* % dead cells
same,"Normalized specific killing, fractional product combination set as 1 (Table 7b), Exp. 2 and 3","[6]; PBMCs and NCI-H929 cells treated with LEN, LEN 5 μM, MOR202 0.07 μg/ml",0.45 and 0.58
same,"Normalized specific killing, fractional product combination set as 1 (Table 7b), Exp. 1","[6]; PBMCs and NCI-H929 cells treated with LEN, LEN 5 μM, MOR202 0.2 μg/ml (*)",0.42*
same,"Normalized specific killing, AVERAGE (Table 7b)","[6]; PBMCs and NCI-H929 cells treated with LEN, LEN 5 μM, MOR202 0.2 or 0.07 μg/ml, average of 3 experiments",0.48
same,"% dead cells (raw data, Table 8a), Exp. 2 and 3","[6]; LEN 5 μM, MOR202 0.07 μg/ml",53.74 % dead cells and 47.00 % dead cells
same,"% dead cells (raw data, Table 8a), Exp. 1","[6]; LEN 5 μM, MOR202 0.2 μg/ml (*)",26.60* % dead cells
same,"Normalized specific killing, fractional product combination set as 1 (Table 8b), Exp. 2 and 3","[6]; only effector cells treated with LEN, LEN 5 μM, MOR202 0.07 μg/ml",0.97 and 0.91
same,"Normalized specific killing, fractional product combination set as 1 (Table 8b), Exp. 1","[6]; only effector cells treated with LEN, LEN 5 μM, MOR202 0.2 μg/ml (*)",1.09*
same,"Normalized specific killing, AVERAGE (Table 8b)","[6]; only effector cells treated with LEN, LEN 5 μM, MOR202 0.2 or 0.07 μg/ml, average of 3 experiments",0.99
B2,"% dead cells, MOR03207 15 μg/ml + DMSO (Table 4a)","[3]; control group of the effector-only experiments, Exp. 1-3",15.77 % dead cells and 15.97 % dead cells and 11.45 % dead cells
same,"% dead cells (raw data, Table 4a)","[3]; only PBMCs (effector cells) treated with LEN before MOR202, LEN 10 μM, MOR202 and MOR03207 15 μg/ml, Exp. 1-3",17.42 % dead cells and 16.17 % dead cells and 12.17 % dead cells
same,"% dead cells (raw data, Table 7a), Exp. 2 and 3","[6]; LEN 5 μM, MOR202 0.07 μg/ml",14.09 % dead cells and 19.20 % dead cells
same,"% dead cells (raw data, Table 7a), Exp. 1","[6]; LEN 5 μM, MOR202 0.2 μg/ml (*)",17.81 % dead cells
same,"% dead cells, MOR03207 (15 μg/ml) + DMSO (Table 7a)","[6]; control group, PBMCs and NCI-H929 cells LEN-treated series, Exp. 1-3",13.74 % dead cells and 18.27 % dead cells and 20.26 % dead cells
same,"% dead cells, MOR03207 (15 μg/ml) + DMSO (Table 8a)","[6]; control group, effector-only series, Exp. 1-3",24.43 % dead cells and 19.52 % dead cells and 24.16 % dead cells
same,"% dead cells (raw data, Table 8a), Exp. 2 and 3","[6]; LEN 5 μM, MOR202 0.07 μg/ml",27.10 % dead cells and 23.19 % dead cells
same,"% dead cells (raw data, Table 8a), Exp. 1","[6]; LEN 5 μM, MOR202 0.2 μg/ml (*)",17.07 % dead cells
